{
  "source": "the supplement of paper PMC5998384",
  "key": {"[1]": {"test_system": "HeLa Kyoto", "assay": "melting temperature (median over replicates), in situ; higher = more thermally stable"}, "[2]": {"test_system": "HeLa Kyoto", "assay": "solubility in G1/S (NP-40 vs SDS abundance) (log2 ratio); higher = more soluble", "settings": "cell cycle stage: G1/S"}, "[3]": {"test_system": "HeLa Kyoto", "assay": "solubility change mitosis vs G1/S (difference of NP-40 vs SDS log2 ratios) (log2 ratio difference); higher = more soluble in mitosis"}, "[4]": {"test_system": "HeLa Kyoto", "assay": "thermal stability score vs G1/S (z-score of summed log2 fold changes over temperatures); higher = more thermally stable than in G1/S"}, "[5]": {"settings": "cell cycle stage: early G1 (4.5 h after nocodazole release)"}},
  "data": [
    {"sequence": "MAAAGVVSGKIIYEQEGVYIHSSCGKTNDQDGLISGILRVLEKDAEVIVDWRPLDDALDSSSILYARKDSSSVVEWTQAPKERGHRGSEHLNSYEAEWDMVNTVSFKRKPHTNGDAPSHRNGKSKWSFLFSLTDLKSIKQNKEGMGWSYLVFCLKDDVVLPALHFHQGDSKLLIESLEKYVVLCESPQDKRTLLVNCQNKSLSQSFENLLDEPAYGLIQAGLLDRRKLLWAIHHWKKIKKDPYTATMIGFSKVTNYIFDSLRGSDPSTHQRPPSEMADFLSDAIPGLKINQQEEPGFEVITRIDLGERPVVQRREPVSLEEWTKNIDSEGRILNVDNMKQMIFRGGLSHALRKQAWKFLLGYFPWDSTKEERTQLQKQKTDEYFRMKLQWKSISQEQEKRNSRLRDYRSLIEKDVNRTDRTNKFYEGQDNPGLILLHDILMTYCMYDFDLGYVQGMSDLLSPLLYVMENEVDAFWCFASYMDQMHQNFEEQMQGMKTQLIQLSTLLRLLDSGFCSYLESQDSGYLYFCFRWLLIRFKREFSFLDILRLWEVMWTELPCTNFHLLLCCAILESEKQQIMEKHYGFNEILKHINELSMKIDVEDILCKAEAISLQMVKCKELPQAVCEILGLQGSEVTTPDSDVGEDENVVMTPCPTSAFQSNALPTLSASGARNDSPTQIPVSSDVCRLTPA [TBC1D15]", "values": [
      {"measurement": "melting temperature", "setting": "[1]; cell cycle stage: G1/S", "value": 49.7, "unit": "°C"},
      {"measurement": "melting temperature", "setting": "[1]; cell cycle stage: mitosis", "value": 50.2, "unit": "°C"},
      {"measurement": "solubility in G1/S (log2)", "setting": "[2]", "value": -0.164},
      {"measurement": "solubility change mitosis (log2)", "setting": "[3]", "value": -0.17},
      {"measurement": "thermal stability score", "setting": "[4]; [5]", "value": -0.47},
      {"measurement": "thermal stability score", "setting": "[4]; cell cycle stage: mitosis", "value": 0.539}
    ]},
    {"sequence": "MAAAGWRDGSGQEKYRLVVVGGGGVGKSALTIQFIQSYFVTDYDPTIEDSYTKQCVIDDRAARLDILDTAGQEEFGAMREQYMRTGEGFLLVFSVTDRGSFEEIYKFQRQILRVKDRDEFPMILIGNKADLDHQRQVTQEEGQQLARQLKVTYMEASAKIRMNVDQAFHELVRVIRKFQEQECPPSPEPTRKEKDKKGCHCVIF [RRAS2]", "values": [
      {"measurement": "melting temperature", "setting": "[1]; cell cycle stage: G1/S", "value": 55.4, "unit": "°C"},
      {"measurement": "melting temperature", "setting": "[1]; cell cycle stage: mitosis", "value": 55.3, "unit": "°C"},
      {"measurement": "solubility in G1/S (log2)", "setting": "[2]", "value": -0.172},
      {"measurement": "solubility change mitosis (log2)", "setting": "[3]", "value": -0.0849},
      {"measurement": "thermal stability score", "setting": "[4]; [5]", "value": 1.24},
      {"measurement": "thermal stability score", "setting": "[4]; cell cycle stage: mitosis", "value": 1.12}
    ]},
    {"sequence": "MAAALFVLLGFALLGTHGASGAAGFVQAPLSQQRWVGGSVELHCEAVGSPVPEIQWWFEGQGPNDTCSQLWDGARLDRVHIHATYHQHAASTISIDTLVEEDTGTYECRASNDPDRNHLTRAPRVKWVRAQAVVLVLEPGTVFTTVEDLGSKILLTCSLNDSATEVTGHRWLKGGVVLKEDALPGQKTEFKVDSDDQWGEYSCVFLPEPMGTANIQLHGPPRVKAVKSSEHINEGETAMLVCKSESVPPVTDWAWYKITDSEDKALMNGSESRFFVSSSQGRSELHIENLNMEADPGQYRCNGTSSKGSDQAIITLRVRSHLAALWPFLGIVAEVLVLVTIIFIYEKRRKPEDVLDDDDAGSAPLKSSGQHQNDKGKNVRQRNSS [BSG]", "values": [
      {"measurement": "melting temperature", "setting": "[1]; cell cycle stage: G1/S", "value": 59.1, "unit": "°C"},
      {"measurement": "melting temperature", "setting": "[1]; cell cycle stage: mitosis", "value": 59.8, "unit": "°C"},
      {"measurement": "solubility in G1/S (log2)", "setting": "[2]", "value": 0.205},
      {"measurement": "solubility change mitosis (log2)", "setting": "[3]", "value": -0.00749},
      {"measurement": "thermal stability score", "setting": "[4]; [5]", "value": -0.849},
      {"measurement": "thermal stability score", "setting": "[4]; cell cycle stage: mitosis", "value": -2.75}
    ]},
    {"sequence": "MAAALLARASGPARRALCPRAWRQLHTIYQSVELPETHQMLLQTCRDFAEKELFPIAAQVDKEHLFPAAQVKKMGGLGLLAMDVPEELGGAGLDYLAYAIAMEEISRGCASTGVIMSVNNSLYLGPILKFGSKEQKQAWVTPFTSGDKIGCFALSEPGNGSDAGAASTTARAEGDSWVLNGTKAWITNAWEASAAVVFASTDRALQNKGISAFLVPMPTPGLTLGKKEDKLGIRGSSTANLIFEDCRIPKDSILGEPGMGFKIAMQTLDMGRIGIASQALGIAQTALDCAVNYAENRMAFGAPLTKLQVIQFKLADMALALESARLLTWRAAMLKDNKKPFIKEAAMAKLAASEAATAISHQAIQILGGMGYVTEMPAERHYRDARITEIYEGTSEIQRLVIAGHLLRSYRS [ACADS]", "values": [
      {"measurement": "melting temperature", "setting": "[1]; cell cycle stage: G1/S", "value": 55.3, "unit": "°C"},
      {"measurement": "melting temperature", "setting": "[1]; cell cycle stage: mitosis", "value": 53.9, "unit": "°C"},
      {"measurement": "solubility in G1/S (log2)", "setting": "[2]", "value": 0.191},
      {"measurement": "solubility change mitosis (log2)", "setting": "[3]", "value": -0.159},
      {"measurement": "thermal stability score", "setting": "[4]; [5]", "value": -1.85},
      {"measurement": "thermal stability score", "setting": "[4]; cell cycle stage: mitosis", "value": -3.37}
    ]},
    {"sequence": "MAAAVVLAAGLRAARRAVAATGVRGGQVRGAAGVTDGNEVAKAQQATPGGAAPTIFSRILDKSLPADILYEDQQCLVFRDVAPQAPVHFLVIPKKPIPRISQAEEEDQQLLGHLLLVAKQTAKAEGLGDGYRLVINDGKLGAQSVYHLHIHVLGGRQLQWPPG [HINT2]", "values": [
      {"measurement": "melting temperature", "setting": "[1]; cell cycle stage: G1/S", "value": 54.9, "unit": "°C"},
      {"measurement": "melting temperature", "setting": "[1]; cell cycle stage: mitosis", "value": 54.9, "unit": "°C"},
      {"measurement": "solubility in G1/S (log2)", "setting": "[2]", "value": 0.565},
      {"measurement": "solubility change mitosis (log2)", "setting": "[3]", "value": -0.0342},
      {"measurement": "thermal stability score", "setting": "[4]; [5]", "value": -0.929},
      {"measurement": "thermal stability score", "setting": "[4]; cell cycle stage: mitosis", "value": -2.12}
    ]}
  ]
}
